The values that follow come from the supplement of paper PMC10567573.

B1: MLL5 (parent)
chain: EQIAERKRKMVSWEASSLGLVTAA
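Note: lentivirally expressed fusions sorted by FACS into six bins by GFP to DsRed ratio, PSI derived from sequencing read proportions per bin multiplied by bin number.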

In this data set the parent is B1. Nature of the data set: protein stability index of a GFP-peptide fusion (GPS, HEK-293T) (PSI 1-6); higher = more stable. As to conditions: c terminus: a fixed tail appended.
As to EQIAERKRKMVSWEASSLGLSTAA, the protein stability index was found to be 3.68.
With EQIAERKRKMVSWEASSLGLTTAA, the protein stability index was found to be 3.62.
To EQIAERKRKMVSWEASSLGLGTAA belongs 3.4.
As for EQIAERKRKMVSWEASSLGLHTAA, the protein stability index was found to be 2.82.
On to EQIAERKRKMVSWEASSLGLFTAA, for which the protein stability index worked out at 2.38.
With EQIAERKRKMVSWEASSLGLLTAA, the protein stability index is 2.76.
To EQIAERKRKMVSWEASSLGLETAA belongs 2.73; to EQIAERKRKMVSWEASSLGLCTAA, 3.05; to EQIAERKRKMVSWEASSLGLNTAA, 3.22.
To EQIAERKRKMVSWEASSLGLPTAA belongs 2.44.
For EQIAERKRKMVSWEASSLGLWTAA, the protein stability index stood at 2.86.
Consider EQIAERKRKMVSWEASSLGLRTAA, for which the protein stability index is 2.96.
As to EQIAERKRKMVSWEASSLGLDTAA, the protein stability index worked out at 3.55.
As to EQIAERKRKMVSWEASSLGLMTAA, the protein stability index amounted to 3.32.
EQIAERKRKMVSWEASSLGLQTAA: the protein stability index stood at 3.22.
To EQIAERKRKMVSWEASSLGLATAA belongs 3.23; to EQIAERKRKMVSWEASSLGLITAA, 3.15; to EQIAERKRKMVSWEASSCGLVTAA, 2.97.
EQIAERKRKMVSWEASSNGLVTAA: the protein stability index amounted to 3.52.
For the variant EQIAERKRKMVSWEASSVGLVTAA, the protein stability index amounted to 2.53.
On to EQIAERKRKMVSWEASSHGLVTAA, for which the protein stability index was found to be 2.97.
Regarding EQIAERKRKMVSWEASSIGLVTAA, the protein stability index is 1.91.
On to EQIAERKRKMVSWEASSTGLVTAA, for which the protein stability index turned out to be 3.5.
With EQIAERKRKMVSWEASSKGLVTAA, the protein stability index turned out to be 3.86.
Regarding EQIAERKRKMVSWEASSMGLVTAA, the protein stability index was 3.16.
EQIAERKRKMVSWEASSGGLVTAA: the protein stability index turned out to be 3.48.
Take EQIAERKRKMVSWEASSSGLVTAA: the protein stability index turned out to be 1.92.
To EQIAERKRKMVSWEASSFGLVTAA belongs 2.43; to EQIAERKRKMVSWEASSDGLVTAA, 4.24.
To EQIAERKRKMVSWEASSQGLVTAA belongs 3.72; to EQIAERKRKMVSWEASSPGLVTAA, 3.4.
To EQIAERKRKMVSWEASSYGLVTAA belongs 2.77.
Regarding EQIAERKRKMVSWEASSEGLVTAA, the protein stability index is 4.66.
As for EQIAERKRKMVSWEASSRGLVTAA, the protein stability index was found to be 3.01.
As for EQIAERKRKMVSWEASSAGLVTAA, the protein stability index is 3.31.
Take EQIAERKRKMVSWEASSLGLVSAA: the protein stability index came to 2.92.
As for EQIAERKRKMVSWEASSLGLVNAA, the protein stability index is 3.21.
For EQIAERKRKMVSWEASSLGLVMAA, the protein stability index was 2.63.
As for EQIAERKRKMVSWEASSLGLVWAA, the protein stability index is 1.79.
Consider EQIAERKRKMVSWEASSLGLVKAA, for which the protein stability index worked out at 2.54.
For the variant EQIAERKRKMVSWEASSLGLVQAA, the protein stability index worked out at 3.73.
For the variant EQIAERKRKMVSWEASSLGLVAAA, the protein stability index was 3.33.
To EQIAERKRKMVSWEASSLGLVHAA belongs 2.85; to EQIAERKRKMVSWEASSLGLVFAA, 1.83; to EQIAERKRKMVSWEASSLGLVIAA, 1.62.
With EQIAERKRKMVSWEASSLGLVDAA, the protein stability index came out at 3.63.
In the case of EQIAERKRKMVSWEASSLGLVLAA, the protein stability index amounted to 2.18.
Regarding EQIAERKRKMVSWEASSLGLVYAA, the protein stability index worked out at 2.57.
As to EQIAERKRKMVSWEASSLGLVEAA, the protein stability index turned out to be 3.63.
Turning to EQIAERKRKMVSWEASSLGLVVAA, the protein stability index was found to be 3.58.
Regarding EQIAERKRKMVSWEASSLGLVTAD, the protein stability index stood at 4.11.
To EQIAERKRKMVSWEASSLGLVTAS belongs 3.57; to EQIAERKRKMVSWEASSLGLVTAV, 3.04; to EQIAERKRKMVSWEASSLGLVTAF, 2.29.
With EQIAERKRKMVSWEASSLGLVTAH, the protein stability index was 3.17.
Consider EQIAERKRKMVSWEASSLGLVTAY, for which the protein stability index came out at 2.1.
In the case of EQIAERKRKMVSWEASSLGLVTAQ, the protein stability index turned out to be 3.39.
As for EQIAERKRKMVSWEASSLGLVTAN, the protein stability index was 3.25.
To EQIAERKRKMVSWEASSLGLVTAE belongs 4.38; to EQIAERKRKMVSWEASSLGLVTAK, 2.4.
To EQIAERKRKMVSWEASSLGLVTAC belongs 2.39; to EQIAERKRKMVSWEASSLGIVTAA, 3.77.
To EQIAERKRKMVSWEASSLGYVTAA belongs 2.68; to EQIAERKRKMVSWEASSLGKVTAA, 3.9.
In the case of EQIAERKRKMVSWEASSLGWVTAA, the protein stability index came to 2.42.
EQIAERKRKMVSWEASSLGDVTAA: the protein stability index was determined as 3.82.
As to EQIAERKRKMVSWEASSLGHVTAA, the protein stability index came to 3.54.
To EQIAERKRKMVSWEASSLGFVTAA belongs 3.35; to EQIAERKRKMVSWEASSLGEVTAA, 4.3.
For the variant EQIAERKRKMVSWEASSLGPVTAA, the protein stability index was determined as 3.72.
For the variant EQIAERKRKMVSWEASSLGVVTAA, the protein stability index is 3.37.
Regarding EQIAERKRKMVSWEASSLGCVTAA, the protein stability index is 3.71.
Take EQIAERKRKMVSWEASSLGQVTAA: the protein stability index is 3.47.
To EQIAERKRKMVSWEASSLGSVTAA belongs 4.99.
Consider EQIAERKRKMVSWEASSLGNVTAA, for which the protein stability index was determined as 3.62.
For the variant EQIAERKRKMVSWEASSLGTVTAA, the protein stability index stood at 3.87.
Take EQIAERKRKMVSWEAWSLGLVTAA: the protein stability index was determined as 1.77.
Take EQIAERKRKMVSWEATSLGLVTAA: the protein stability index was 2.77.
Consider EQIAERKRKMVSWEAVSLGLVTAA, for which the protein stability index turned out to be 2.29.
Turning to EQIAERKRKMVSWEASSLHLVTAA, the protein stability index is 2.68.
For the variant EQIAERKRKMVSWEASSLMLVTAA, the protein stability index worked out at 2.65.
To EQIAERKRKMVSWEASSLNLVTAA belongs 2.95.
On to EQIAERKRKMVSWEASSLQLVTAA, for which the protein stability index came to 3.49.
To EQIAERKRKMVSWEASSLALVTAA belongs 2.1; to EQIAERKRKMVSWEASSLYLVTAA, 1.84; to EQIAERKRKMVSWEASSLKLVTAA, 3.09.
On to EQIAERKRKMVSWEASSLDLVTAA, for which the protein stability index worked out at 3.32.
As to EQIAERKRKMVSWEASSLWLVTAA, the protein stability index amounted to 1.74.
Take EQIAERKRKMVSWEASSLCLVTAA: the protein stability index worked out at 2.38.
Turning to EQIAERKRKMVSWEASSLTLVTAA, the protein stability index came to 3.25.
As for EQIAERKRKMVSWEASSLSLVTAA, the protein stability index is 3.84.
As to EQIAERKRKMVSWEASSLRLVTAA, the protein stability index is 3.16.
To EQIAERKRKMVSWEASSLVLVTAA belongs 2.9; to EQIAERKRKMVSWEASSLELVTAA, 3.71.
